# According to paper PMC3024583:
# Substitutions are numbered along the chain they refer to. Like-named read-outs stand apart in the source and are kept apart here.
# B1: FJX1 SPS (dsDNA)
# DNA 1: GGACCTGTGAATCGCGCCCACCGGAGGGTCTCACAAGC
# DNA 2: GCTTGTGAGACCCTCCGGTGGGCGCGATTCACAGGTCC
# B2: HES1 SPS (dsDNA)
# DNA 1: AGTTACTGTGGGAAAGAAAGTTTGGGAAGTTTCACACGAGCCGTTC
# DNA 2: GAACGGCTCGTGTGAAACTTCCCAAACTTTCTTTCCCACAGTAACT
# B3: HES5_E_long human (dsDNA)
# DNA 1: GCGGAGTGTGGGAACGGCCGCGGCGCCCGGACTCCAGGCGCCAGGCCGC
# DNA 2: GCGGCCTGGCGCCTGGAGTCCGGGCGCCGCGGCCGTTCCCACACTCCGC
# B4: Hes5_E_long mouse (dsDNA)
# DNA 1: B3 DNA 1 with G3C, T33C, A43G
# DNA 2: B3 DNA 2 with T7C, A17G, C47G
# B5: HES4 SPS (dsDNA)
# DNA 1: GGCGAGTGTGGGAAAGAATGCGGAGCCGGGTTCACACACCCCGCGG
# DNA 2: CCGCGGGGTGTGTGAACCCGGCTCCGCATTCTTTCCCACACTCGCC
# B6: 15bp SPS (SYT14) (dsDNA)
# DNA 1: GCCAAACATGGGAAATTGCTGCTATTCTTTTCCCACTACAGCC
# DNA 2: GGCTGTAGTGGGAAAAGAATAGCAGCAATTTCCCATGTTTGGC
# B7: 17bp SPS (CUL1) (dsDNA)
# DNA 1: GAATTACGTGGGAATTATAAATAAATTACTCTTCACACTCTTATCC
# DNA 2: GGATAAGAGTGTGAAGAGTAATTTATTTATAATTCCCACGTAATTC
# B8: Single-site control (dsDNA)
# DNA 1: GGAAACACGCCGTGGGAAAAAATTTGGC
# DNA 2: GCCAAATTTTTTCCCACGGCGTGTTTCC
# Experiments:
# Assay in all cases: EMSA
# [1] = target: T1, CSL (CBF1);Notch1 RAMANK wild-type;MAML1 (human?;human;human?, UniProt Q06330;P46531;Q92585 23-449;1760-2126;13-74, ||)
# [2] = target: T1, CSL (CBF1);Notch1 RAMANK wild-type;MAML1; remark: listed apart in the source
# [3] = target: T1, CSL (CBF1);Notch1 RAMANK wild-type;MAML1; remark: listed apart in the source
# [4] = target: T1, CSL (CBF1);Notch1 RAMANK wild-type;MAML1; remark: listed apart in the source
# [5] = target: T1, CSL (CBF1);Notch1 RAMANK wild-type;MAML1; remark: listed apart in the source
# [6] = target: CSL (CBF1);Notch1 RAMANK R1985A;MAML1 (human?;human;human?, UniProt Q06330;P46531;Q92585 23-449;1760-2126;13-74, |R1984A|)
# [7] = target: T1, CSL (CBF1);Notch1 RAMANK wild-type;MAML1; remark: listed apart in the source
# T1 sequence (Q06330 23-449, chain 1 of 3): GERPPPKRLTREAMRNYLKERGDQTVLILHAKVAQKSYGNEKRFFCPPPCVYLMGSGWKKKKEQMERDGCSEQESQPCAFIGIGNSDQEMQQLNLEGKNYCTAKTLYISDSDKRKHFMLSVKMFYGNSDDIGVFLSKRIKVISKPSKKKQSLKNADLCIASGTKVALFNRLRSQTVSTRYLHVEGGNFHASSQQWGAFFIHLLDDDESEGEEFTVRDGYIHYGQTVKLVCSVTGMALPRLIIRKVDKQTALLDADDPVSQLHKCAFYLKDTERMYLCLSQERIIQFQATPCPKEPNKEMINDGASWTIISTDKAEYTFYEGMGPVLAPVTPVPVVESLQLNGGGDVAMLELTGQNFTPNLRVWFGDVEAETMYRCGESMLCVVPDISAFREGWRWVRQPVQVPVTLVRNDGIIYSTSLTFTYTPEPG
# T1 sequence (P46531 1760-2126, chain 2 of 3): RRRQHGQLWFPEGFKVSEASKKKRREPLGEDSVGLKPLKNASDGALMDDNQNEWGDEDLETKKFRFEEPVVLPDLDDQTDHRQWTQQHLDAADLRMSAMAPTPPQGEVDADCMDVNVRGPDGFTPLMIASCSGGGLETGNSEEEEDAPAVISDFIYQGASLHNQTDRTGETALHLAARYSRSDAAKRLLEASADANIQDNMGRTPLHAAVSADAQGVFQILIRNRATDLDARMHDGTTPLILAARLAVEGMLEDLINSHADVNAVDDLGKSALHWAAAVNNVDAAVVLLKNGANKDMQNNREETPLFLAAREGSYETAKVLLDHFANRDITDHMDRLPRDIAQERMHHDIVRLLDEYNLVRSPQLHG
# T1 sequence (Q92585 13-74, chain 3 of 3): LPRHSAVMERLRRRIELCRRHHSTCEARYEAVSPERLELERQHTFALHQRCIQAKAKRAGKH
# Chain of CSL (CBF1);Notch1 RAMANK R1985A;MAML1 (Q06330 23-449, chain 1 of 3): as the sequence (Q06330 23-449, chain 1 of 3) above
# Chain of CSL (CBF1);Notch1 RAMANK R1985A;MAML1 (P46531 1760-2126 R1984A, chain 2 of 3): as the sequence (P46531 1760-2126, chain 2 of 3) above, with R225A counted along it
# Chain of CSL (CBF1);Notch1 RAMANK R1985A;MAML1 (Q92585 13-74, chain 3 of 3): as the sequence (Q92585 13-74, chain 3 of 3) above
binder,measurement,setting,value
B1,binding result,[1],binds
B2,binding result,[2],binds
B3,binding result,[3],binds
B4,binding result,[3],binds
B5,binding result,[1],binds
B6,binding result,[4],binds
B7,binding result,[5],binds
B8,binding result,[6],binds
same,binding result,[7],binds
